Measurements as given in patent US20230151068A1.

Target: biotinylated His-Avi-TEAD (194-411) (UniProt P28347)
Experiment: SSM screen, enrichment after two rounds of sorting

For GSPDEYKERAKECCKKGDIQCCLRYFEESGDPNVMLICLFCP (designed binder) [I05K variant of SEQ ID NO: 1], the enrichment score was -1.5.

Work on GSPDEYIKRAKECCKKGDIQCCLRYFEESGDPNVMLICLFCP (designed binder) [E06K variant of SEQ ID NO: 1] yielded an enrichment score of -1.13.

In the case of GSPDEYIEKAKECCKKGDIQCCLRYFEESGDPNVMLICLFCP (designed binder) [R07K variant of SEQ ID NO: 1], the enrichment score is reported as 0.47.

GSPDEYIERKKECCKKGDIQCCLRYFEESGDPNVMLICLFCP (designed binder) [A08K variant of SEQ ID NO: 1] was tested, and the enrichment score was -4.73.

For GSPDEYIERAKKCCKKGDIQCCLRYFEESGDPNVMLICLFCP (designed binder) [E10K variant of SEQ ID NO: 1], the enrichment score was -2.3.

For GSRDEYIERAKECCKKGDIQCCLRYFEESGDPNVMLICLFCP (designed binder) [P01R variant of SEQ ID NO: 1], the enrichment score was -2.1.

GSPREYIERAKECCKKGDIQCCLRYFEESGDPNVMLICLFCP (designed binder) [D02R variant of SEQ ID NO: 1] showed an enrichment score of -7.12.

Work on GSPDRYIERAKECCKKGDIQCCLRYFEESGDPNVMLICLFCP (designed binder) [E03R variant of SEQ ID NO: 1] yielded an enrichment score of -1.81.

GSPDERIERAKECCKKGDIQCCLRYFEESGDPNVMLICLFCP (designed binder) [Y04R variant of SEQ ID NO: 1] showed an enrichment score of -0.94.

With GSPDEYRERAKECCKKGDIQCCLRYFEESGDPNVMLICLFCP (designed binder) [I05R variant of SEQ ID NO: 1] the enrichment score was -3.27.

In the case of GSPDEYIRRAKECCKKGDIQCCLRYFEESGDPNVMLICLFCP (designed binder) [E06R variant of SEQ ID NO: 1], the enrichment score is reported as -1.78.

GSPDEYIERRKECCKKGDIQCCLRYFEESGDPNVMLICLFCP (designed binder) [A08R variant of SEQ ID NO: 1] was tested, and the enrichment score was -5.84.

With GSPDEYIERARECCKKGDIQCCLRYFEESGDPNVMLICLFCP (designed binder) [K09R variant of SEQ ID NO: 1] the enrichment score was -1.3.

GSPDEYIERAKRCCKKGDIQCCLRYFEESGDPNVMLICLFCP (designed binder) [E10R variant of SEQ ID NO: 1] gave an enrichment score of -2.84.

In the case of GSMDEYIERAKECCKKGDIQCCLRYFEESGDPNVMLICLFCP (designed binder) [P01M variant of SEQ ID NO: 1], the enrichment score is reported as -1.02.

For GSPMEYIERAKECCKKGDIQCCLRYFEESGDPNVMLICLFCP (designed binder) [D02M variant of SEQ ID NO: 1], the enrichment score was -1.86.

For GSPDMYIERAKECCKKGDIQCCLRYFEESGDPNVMLICLFCP (designed binder) [E03M variant of SEQ ID NO: 1], the enrichment score was 2.57.

GSPDEMIERAKECCKKGDIQCCLRYFEESGDPNVMLICLFCP (designed binder) [Y04M variant of SEQ ID NO: 1] was tested, and the enrichment score was -0.68.

Binder GSPDEYMERAKECCKKGDIQCCLRYFEESGDPNVMLICLFCP (designed binder) [I05M variant of SEQ ID NO: 1] has an enrichment score of -1.87.

GSPDEYIMRAKECCKKGDIQCCLRYFEESGDPNVMLICLFCP (designed binder) [E06M variant of SEQ ID NO: 1] showed an enrichment score of -2.04.

Work on GSPDEYIEMAKECCKKGDIQCCLRYFEESGDPNVMLICLFCP (designed binder) [R07M variant of SEQ ID NO: 1] yielded an enrichment score of -1.06.

For GSPDEYIERMKECCKKGDIQCCLRYFEESGDPNVMLICLFCP (designed binder) [A08M variant of SEQ ID NO: 1], the enrichment score was -10.1.

GSPDEYIERAMECCKKGDIQCCLRYFEESGDPNVMLICLFCP (designed binder) [K09M variant of SEQ ID NO: 1] gave an enrichment score of -3.56.

In the case of GSPDEYIERAKMCCKKGDIQCCLRYFEESGDPNVMLICLFCP (designed binder) [E10M variant of SEQ ID NO: 1], the enrichment score is reported as -0.34.

For GSNDEYIERAKECCKKGDIQCCLRYFEESGDPNVMLICLFCP (designed binder) [P01N variant of SEQ ID NO: 1], the enrichment score was -0.49.

For GSPNEYIERAKECCKKGDIQCCLRYFEESGDPNVMLICLFCP (designed binder) [D02N variant of SEQ ID NO: 1], the enrichment score was -0.16.

GSPDNYIERAKECCKKGDIQCCLRYFEESGDPNVMLICLFCP (designed binder) [E03N variant of SEQ ID NO: 1] showed an enrichment score of 0.58.

GSPDENIERAKECCKKGDIQCCLRYFEESGDPNVMLICLFCP (designed binder) [Y04N variant of SEQ ID NO: 1] was tested, and the enrichment score was 0.04.

For GSPDEYNERAKECCKKGDIQCCLRYFEESGDPNVMLICLFCP (designed binder) [I05N variant of SEQ ID NO: 1], the enrichment score was -1.34.

With GSPDEYINRAKECCKKGDIQCCLRYFEESGDPNVMLICLFCP (designed binder) [E06N variant of SEQ ID NO: 1] the enrichment score was -0.82.

Binder GSPDEYIENAKECCKKGDIQCCLRYFEESGDPNVMLICLFCP (designed binder) [R07N variant of SEQ ID NO: 1] has an enrichment score of 0.34.

With GSPDEYIERNKECCKKGDIQCCLRYFEESGDPNVMLICLFCP (designed binder) [A08N variant of SEQ ID NO: 1] the enrichment score was -9.2.

For GSPDEYIERANECCKKGDIQCCLRYFEESGDPNVMLICLFCP (designed binder) [K09N variant of SEQ ID NO: 1], the enrichment score was 3.31.

GSPDEYIERAKNCCKKGDIQCCLRYFEESGDPNVMLICLFCP (designed binder) [E10N variant of SEQ ID NO: 1] gave an enrichment score of -0.45.

Binder GSQDEYIERAKECCKKGDIQCCLRYFEESGDPNVMLICLFCP (designed binder) [P01Q variant of SEQ ID NO: 1] has an enrichment score of -0.84.

Work on GSPQEYIERAKECCKKGDIQCCLRYFEESGDPNVMLICLFCP (designed binder) [D02Q variant of SEQ ID NO: 1] yielded an enrichment score of -0.2.

For GSPDQYIERAKECCKKGDIQCCLRYFEESGDPNVMLICLFCP (designed binder) [E03Q variant of SEQ ID NO: 1], the enrichment score was -1.35.

GSPDEQIERAKECCKKGDIQCCLRYFEESGDPNVMLICLFCP (designed binder) [Y04Q variant of SEQ ID NO: 1] gave an enrichment score of 0.29.

In the case of GSPDEYQERAKECCKKGDIQCCLRYFEESGDPNVMLICLFCP (designed binder) [I05Q variant of SEQ ID NO: 1], the enrichment score is reported as -1.23.

GSPDEYIQRAKECCKKGDIQCCLRYFEESGDPNVMLICLFCP (designed binder) [E06Q variant of SEQ ID NO: 1] gave an enrichment score of -2.41.

Binder GSPDEYIEQAKECCKKGDIQCCLRYFEESGDPNVMLICLFCP (designed binder) [R07Q variant of SEQ ID NO: 1] has an enrichment score of -0.48.

For GSPDEYIERQKECCKKGDIQCCLRYFEESGDPNVMLICLFCP (designed binder) [A08Q variant of SEQ ID NO: 1], the enrichment score was -6.

Work on GSPDEYIERAQECCKKGDIQCCLRYFEESGDPNVMLICLFCP (designed binder) [K09Q variant of SEQ ID NO: 1] yielded an enrichment score of 1.1.

With GSPDEYIERAKQCCKKGDIQCCLRYFEESGDPNVMLICLFCP (designed binder) [E10Q variant of SEQ ID NO: 1] the enrichment score was -1.94.

Binder GSSDEYIERAKECCKKGDIQCCLRYFEESGDPNVMLICLFCP (designed binder) [P01S variant of SEQ ID NO: 1] has an enrichment score of 0.13.

GSPSEYIERAKECCKKGDIQCCLRYFEESGDPNVMLICLFCP (designed binder) [D02S variant of SEQ ID NO: 1] was tested, and the enrichment score was -1.01.

Work on GSPDSYIERAKECCKKGDIQCCLRYFEESGDPNVMLICLFCP (designed binder) [E03S variant of SEQ ID NO: 1] yielded an enrichment score of -0.41.

Binder GSPDESIERAKECCKKGDIQCCLRYFEESGDPNVMLICLFCP (designed binder) [Y04S variant of SEQ ID NO: 1] has an enrichment score of -0.74.

For GSPDEYSERAKECCKKGDIQCCLRYFEESGDPNVMLICLFCP (designed binder) [I05S variant of SEQ ID NO: 1], the enrichment score was -2.04.

In the case of GSPDEYISRAKECCKKGDIQCCLRYFEESGDPNVMLICLFCP (designed binder) [E06S variant of SEQ ID NO: 1], the enrichment score is reported as -1.09.

For GSPDEYIESAKECCKKGDIQCCLRYFEESGDPNVMLICLFCP (designed binder) [R07S variant of SEQ ID NO: 1], the enrichment score was 0.31.

GSPDEYIERSKECCKKGDIQCCLRYFEESGDPNVMLICLFCP (designed binder) [A08S variant of SEQ ID NO: 1] was tested, and the enrichment score was -2.79.

With GSPDEYIERASECCKKGDIQCCLRYFEESGDPNVMLICLFCP (designed binder) [K09S variant of SEQ ID NO: 1] the enrichment score was -0.91.

Work on GSPDEYIERAKSCCKKGDIQCCLRYFEESGDPNVMLICLFCP (designed binder) [E10S variant of SEQ ID NO: 1] yielded an enrichment score of -2.47.

In the case of GSTDEYIERAKECCKKGDIQCCLRYFEESGDPNVMLICLFCP (designed binder) [P01T variant of SEQ ID NO: 1], the enrichment score is reported as -0.57.

For GSPTEYIERAKECCKKGDIQCCLRYFEESGDPNVMLICLFCP (designed binder) [D02T variant of SEQ ID NO: 1], the enrichment score was -0.52.
